Measured values taken from the RNAGym collection of RNA variant scans (doi:10.7554/elife.90254).

B1: LINE1-full (parent)
chain: UACGUAGGUGGUUUUCCCCUGAUAGUGCUAAGGGGGCCUGGAAGUUUGGACUGGGCAGAGCUCAACACAGCGUGGCAAAGUGGCUGUGGCUAGACUGCCUCUCUGGAUUCCUCGUCACUCAGCAGGGCAUCUCUGAGAGAAAUGCC

Variants of: B1
Assay: self-cleavage, relative activity (ratio to wild type); higher = more cleavage; in vitro, sequencing; the parent is a self-cleaving ribozyme

Row | Variant | self-cleavage
1 | U47C U73G | 1.38
2 | A6U A30U | 0.58
3 | G55U U115A | 0.14
4 | U23C G53A | 0.87
5 | A43G C76U | 1.66
6 | U62A A140U | 0.03
7 | A94U U130A | 0.23
8 | U9C G82U | 1.34
9 | A67G A121U | 0.51
10 | U12G U81C | 0.86
11 | U29G G137U | 1.04
12 | A79G U85C | 0.11
13 | U62A U100C | 0.23
14 | A67G G125U | 0.39
15 | G88U A142G | 0
16 | C17U U23C | 0.68
17 | U47C A92U | 0.77
18 | A117U A136G | 1.51
19 | G49A U102C | 1.11
20 | G49U U96A | 0.02
21 | A77U A117U | 1.21
22 | A59G A65U | 0.08
23 | U1C U20C | 0.79
24 | A79G A117U | 1.06

Row | Variant | self-cleavage
25 | U115C C131A | 0.47
26 | A22G U73G | 1.49
27 | A2G G55U | 0.49
28 | A138U A142G | 0.93
29 | C84A U100C | 0.14
30 | U47G A77U | 0.94
31 | C56U A59U | 0.11
32 | C98A C101U | 0.09
33 | G72A U100C | 0.32
34 | A6U G53A | 0.9
35 | C68U U87C | 0.02
36 | G74A U134C | 1.1
37 | U12G U39C | 1.61
38 | U47C A107G | 1.43
39 | U23A U102C | 2.11
40 | U45A C51G | 1.44
41 | U100G G114A | 1.77
42 | U26C A43G | 1.43
43 | C18A U73C | 1.23
44 | G49U U91C | 0.46
45 | G36C A94G | 0.32
46 | A2G U143A | 0.99
47 | C61G U100C | 0.06
48 | U130C G144A | 1.57

Row | Variant | self-cleavage
49 | G55A U134C | 0.23
50 | U14A U134A | 0.81
51 | U47C A121G | 1.92
52 | U13A U62A | 0.06
53 | U85A A94U | 0.07
54 | G86A A140U | 0.09
55 | U85A A124C | 0.08
56 | G4U U96A | 0.09
57 | U20C A140C | 2.05
58 | A50G A69G | 0.35
59 | U52A U96A | 0.07
60 | U12A U100A | 0.87
61 | G97U G127A | 0.04
62 | G25U A42G | 1.04
63 | U26G U104C | 0.81
64 | G105A A129C | 2.69
65 | G70A A124C | 0.21
66 | U9A C128U | 0.9
67 | A79G C90A | 0.04
68 | A22G G137A | 1.52
69 | C19U U81C | 1
70 | U62C C66U | 0.03
71 | U46G U73G | 1.5
72 | A94C U119C | 0.1

Row | Variant | self-cleavage
73 | U100C A136G | 1.91
74 | A92U U119A | 0.72
75 | C71A G93U | 0.03
76 | G58U U143C | 0.07
77 | G8A U13C | 1.05
78 | U81A C146U | 1.56
79 | G41A A43G | 0.44
80 | U46G U91C | 0.74
81 | A64G U112C | 0.28
82 | U102C U115C | 2.02
83 | G35U A124G | 0.68
84 | A31G A142G | 1.17
85 | A77G U85A | 0.06
86 | C37U A124U | 1.12
87 | U14C G41U | 0.71
88 | U12C G32A | 1.54
89 | U1C U13A | 0.69
90 | A57G A67U | 0.06
91 | U39C U115A | 1.05
92 | U12C U62C | 0.09
93 | C111U G137A | 1.73
94 | C63U C128U | 0.23
95 | U52C C116U | 1.39
96 | U26C U62G | 0.07

Row | Variant | self-cleavage
97 | U73A G88A | 0.07
98 | A6G A121G | 1.14
99 | A31U A129U | 0.33
100 | G72U C145G | 0.94
101 | U52A U143A | 1.37
102 | C28U U96A | 0.06
103 | U13C G54U | 0.6
104 | U109C U115C | 1.22
105 | U47G A124G | 0.56
106 | C98U A121G | 0.44
107 | C18U U39C | 0.82
108 | U81C U132C | 1.61
109 | A30G U109C | 1.71
110 | A79G U130C | 1.45
111 | A69G A142U | 0.35
112 | G114U A142C | 0.95
113 | U23C A69G | 1.2
114 | A107G A140G | 1.87
115 | U15C U23C | 0.94
116 | U13C A140G | 1.23
117 | U23A U108C | 1.45
118 | U23C U81C | 1.41
119 | U81G A117U | 1.32
120 | U91C G127A | 0.53

Row | Variant | self-cleavage
121 | U73A A129G | 1.67
122 | U47A G88A | 0.01
123 | U62C U81C | 0.05
124 | U45C U47A | 1.3
125 | U52C U130C | 1.84
126 | C71U A141U | 1.46
127 | C28G U45C | 1.09
128 | G36C G82U | 1.65
129 | A59G A129U | 0.19
130 | A65G G127C | 0.06
131 | U73C C101U | 1.01
132 | G49U A92G | 0.04
133 | A42U A94G | 0.24
134 | U20A U47C | 1.31
135 | C37A U45C | 1.01
136 | G80C | 1.4
137 | A31U G126U | 0.79
138 | A94G A136G | 0.34
139 | U12A A65G | 0.21
140 | A24U U143C | 1.63
141 | U102A A107U | 1.66
142 | U119A U143C | 1.93
143 | A30U A124C | 1.05
144 | U1C A67C | 0.09

Row | Variant | self-cleavage
145 | A67G A107U | 0.92
146 | U14C G58U | 0.03
147 | U39C G60A | 0.02
148 | U87A A140G | 0.07
149 | A31C A78G | 1.1
150 | U52A A121U | 1.03
151 | A121G U143A | 0.91
152 | U20A U87G | 0.21
153 | A78G A141G | 1.38
154 | U62C A94U | 0.08
155 | U104A U132C | 1.08
156 | U29C U85C | 0.28
157 | A67G C111A | 0.58
158 | U9G U81C | 0.83
159 | U85A G127A | 0.06
160 | U85C U100A | 0
161 | A79U U130C | 2.63
162 | G105C | 1.59
163 | U23C A50U | 1
164 | A92U U100C | 0.9
165 | C128G | 0.98
166 | G127A A140G | 0.9
167 | G7A A142G | 1.59
